# Assay results from the Human Domainome abundance scans (Beltran et al. 2025).
# ± gives the uncertainty stated by the source.
# B1: Histone H1t, residues 44 to 112; numbered along this chain, P22492 (parent)
# chain: VSKLITEALSVSQERVGMSLVALKKALAAAGYDVEKNNSRIKLSLKSLVNKGILVQTRGTGASGSFKLS
# Variants of: B1
# Test: abundance fitness (aPCA) (normalised: wild type 0, dead -1); higher = more abundant; growth selection in yeast, the domain comes from the species named
# Conditions: Homo sapiens
row,Variant,abundance fitness
1,VSKLITEALSVSQERVGMSLVALKKALAAAGYDVEKNNSRIKLSLKSVVNKGILVQTRGTGASGSFKLS [L48V],-0.536 ± 0.087
2,VSKLITEALSVSQERVGMSLVALKKALAAAGYDVEKNNSRIKLSLKSWVNKGILVQTRGTGASGSFKLS [L48W],-0.402 ± 0.15
3,VSKLITEALSVSQERVGMSLVALKKALAAAGYDVEKNNSRIKLSLKSYVNKGILVQTRGTGASGSFKLS [L48Y],-0.624 ± 0.061
4,VSKLITEALSVSQERVGMSLVALKKALAAAGYDVEKNNSRIKLSLKSLANKGILVQTRGTGASGSFKLS [V49A],-0.336 ± 0.3
5,VSKLITEALSVSQERVGMSLVALKKALAAAGYDVEKNNSRIKLSLKSLDNKGILVQTRGTGASGSFKLS [V49D],-0.416 ± 0.48
6,VSKLITEALSVSQERVGMSLVALKKALAAAGYDVEKNNSRIKLSLKSLFNKGILVQTRGTGASGSFKLS [V49F],-0.056 ± 0.033
7,VSKLITEALSVSQERVGMSLVALKKALAAAGYDVEKNNSRIKLSLKSLHNKGILVQTRGTGASGSFKLS [V49H],-0.432 ± 0.083
8,VSKLITEALSVSQERVGMSLVALKKALAAAGYDVEKNNSRIKLSLKSLINKGILVQTRGTGASGSFKLS [V49I],-0.026 ± 0.054
9,VSKLITEALSVSQERVGMSLVALKKALAAAGYDVEKNNSRIKLSLKSLKNKGILVQTRGTGASGSFKLS [V49K],-0.173 ± 0.044
10,VSKLITEALSVSQERVGMSLVALKKALAAAGYDVEKNNSRIKLSLKSLLNKGILVQTRGTGASGSFKLS [V49L],0.052 ± 0.035
11,VSKLITEALSVSQERVGMSLVALKKALAAAGYDVEKNNSRIKLSLKSLMNKGILVQTRGTGASGSFKLS [V49M],0.062 ± 0.044
12,VSKLITEALSVSQERVGMSLVALKKALAAAGYDVEKNNSRIKLSLKSLNNKGILVQTRGTGASGSFKLS [V49N],-0.54 ± 0.052
13,VSKLITEALSVSQERVGMSLVALKKALAAAGYDVEKNNSRIKLSLKSLPNKGILVQTRGTGASGSFKLS [V49P],-0.434 ± 0.12
14,VSKLITEALSVSQERVGMSLVALKKALAAAGYDVEKNNSRIKLSLKSLQNKGILVQTRGTGASGSFKLS [V49Q],-0.323 ± 0.079
15,VSKLITEALSVSQERVGMSLVALKKALAAAGYDVEKNNSRIKLSLKSLRNKGILVQTRGTGASGSFKLS [V49R],-0.262 ± 0.2
16,VSKLITEALSVSQERVGMSLVALKKALAAAGYDVEKNNSRIKLSLKSLSNKGILVQTRGTGASGSFKLS [V49S],-0.423 ± 0.074
17,VSKLITEALSVSQERVGMSLVALKKALAAAGYDVEKNNSRIKLSLKSLWNKGILVQTRGTGASGSFKLS [V49W],-0.495 ± 0.34
18,VSKLITEALSVSQERVGMSLVALKKALAAAGYDVEKNNSRIKLSLKSLYNKGILVQTRGTGASGSFKLS [V49Y],-0.135 ± 0.049
19,VSKLITEALSVSQERVGMSLVALKKALAAAGYDVEKNNSRIKLSLKSLVAKGILVQTRGTGASGSFKLS [N50A],-0.037 ± 0.036
20,VSKLITEALSVSQERVGMSLVALKKALAAAGYDVEKNNSRIKLSLKSLVCKGILVQTRGTGASGSFKLS [N50C],-0.311 ± 0.096

row,Variant,abundance fitness
1,VSKLITEALSVSQERVGMSLVALKKALAAAGYDVEKNNSRIKLSLKSLVDKGILVQTRGTGASGSFKLS [N50D],-0.105 ± 0.12
2,VSKLITEALSVSQERVGMSLVALKKALAAAGYDVEKNNSRIKLSLKSLVEKGILVQTRGTGASGSFKLS [N50E],0.027 ± 0.07
3,VSKLITEALSVSQERVGMSLVALKKALAAAGYDVEKNNSRIKLSLKSLVFKGILVQTRGTGASGSFKLS [N50F],-1.1 ± 0.3
4,VSKLITEALSVSQERVGMSLVALKKALAAAGYDVEKNNSRIKLSLKSLVGKGILVQTRGTGASGSFKLS [N50G],-0.099 ± 0.04
5,VSKLITEALSVSQERVGMSLVALKKALAAAGYDVEKNNSRIKLSLKSLVHKGILVQTRGTGASGSFKLS [N50H],-0.24 ± 0.11
6,VSKLITEALSVSQERVGMSLVALKKALAAAGYDVEKNNSRIKLSLKSLVIKGILVQTRGTGASGSFKLS [N50I],-0.398 ± 0.29
7,VSKLITEALSVSQERVGMSLVALKKALAAAGYDVEKNNSRIKLSLKSLVKKGILVQTRGTGASGSFKLS [N50K],-0.108 ± 0.12
8,VSKLITEALSVSQERVGMSLVALKKALAAAGYDVEKNNSRIKLSLKSLVLKGILVQTRGTGASGSFKLS [N50L],-0.312 ± 0.043
9,VSKLITEALSVSQERVGMSLVALKKALAAAGYDVEKNNSRIKLSLKSLVMKGILVQTRGTGASGSFKLS [N50M],-0.394 ± 0.096
10,VSKLITEALSVSQERVGMSLVALKKALAAAGYDVEKNNSRIKLSLKSLVPKGILVQTRGTGASGSFKLS [N50P],-0.076 ± 0.036
11,VSKLITEALSVSQERVGMSLVALKKALAAAGYDVEKNNSRIKLSLKSLVQKGILVQTRGTGASGSFKLS [N50Q],0.066 ± 0.068
12,VSKLITEALSVSQERVGMSLVALKKALAAAGYDVEKNNSRIKLSLKSLVRKGILVQTRGTGASGSFKLS [N50R],-0.082 ± 0.038
13,VSKLITEALSVSQERVGMSLVALKKALAAAGYDVEKNNSRIKLSLKSLVSKGILVQTRGTGASGSFKLS [N50S],0.092 ± 0.041
14,VSKLITEALSVSQERVGMSLVALKKALAAAGYDVEKNNSRIKLSLKSLVTKGILVQTRGTGASGSFKLS [N50T],0.018 ± 0.05
15,VSKLITEALSVSQERVGMSLVALKKALAAAGYDVEKNNSRIKLSLKSLVVKGILVQTRGTGASGSFKLS [N50V],-0.388 ± 0.046
16,VSKLITEALSVSQERVGMSLVALKKALAAAGYDVEKNNSRIKLSLKSLVWKGILVQTRGTGASGSFKLS [N50W],-0.827 ± 0.077
17,VSKLITEALSVSQERVGMSLVALKKALAAAGYDVEKNNSRIKLSLKSLVYKGILVQTRGTGASGSFKLS [N50Y],-0.092 ± 0.26
18,VSKLITEALSVSQERVGMSLVALKKALAAAGYDVEKNNSRIKLSLKSLVNAGILVQTRGTGASGSFKLS [K51A],-0.164 ± 0.056
19,VSKLITEALSVSQERVGMSLVALKKALAAAGYDVEKNNSRIKLSLKSLVNDGILVQTRGTGASGSFKLS [K51D],-0.383 ± 0.13
